{"source": "patent EP4755919A1", "about": "“ANTI-TROP2 ANTIBODY, CONJUGATE COMPRISING SAID ANTIBODY, AND USE THEREOF” (Hanano Technologies Limited, priority 2023, dated 2024)", "molecules": {"B1": {"name": "humanized Trop2 single domain antibody HuNb2 (VHH)", "VHH": "EVQLLESGGGLVQPGGSLRLSCVDSGSTYSRRYMGWFRRAPGKGLEGVSVISPYGDSTYYADSVKDRFTISRDNAKNTVYLQMNSLKPEDTAMYYCAASWPYQTASLDAMDFTDWGQGTLVTVSS", "notes": "also called Trop2 HuNb2; not shown: HA tag used for APC anti-HA detection"}, "B2": {"name": "Trop2 single domain antibody Nb1 (VHH)", "VHH": "QVQLQESGGGSVQAGGSLRLSCAASGFTFSRACMGWFRQASGKEREGVAQVYTGGGSTSYADSVKGRFTISQDNAKNTLYLQMNSLKPEDTAVYYCAVGQPYGACYYSDLAPADFSYWGQGTQVTVSS", "notes": "Camel-derived VHH expressed and purified from E. coli (phage vector pMECS); detected through an HA tag; also called Trop2 Nb1; candidate antibody Nb1; not shown: HA tag (and any other vector-derived tag from pMECS) used for APC anti-HA detection"}, "B3": {"name": "humanized Trop2 single domain antibody HuNb1 (VHH)", "VHH": "B2 VHH with Q1E, Q5L, S11L, A14P, E44G, R45L, Q123L", "notes": "Humanized form of Nb1; also called Trop2 HuNb1; not shown: HA tag used for APC anti-HA detection"}, "B4": {"name": "anti-serum albumin single domain antibody Alb Nb1 (VHH)", "VHH": "EVQLQESGGGLVEPGGSLRLSCVASGFTFQHYAMSWVRQAPGKGLEWVSSISLVGGGTSYADSVKGRFTMSRDNAKNTLYLQLNSLKSEDTAMYYCVRGWHPDVPRPLGQGTLVTVSS"}, "B5": {"name": "anti-serum albumin single domain antibody Alb Nb4 (VHH)", "VHH": "B4 VHH with L53T"}, "B6": {"name": "anti-serum albumin single domain antibody Alb Nb2 (VHH)", "VHH": "B4 VHH with L53V"}, "B7": {"name": "anti-serum albumin single domain antibody Alb Nb3 (VHH)", "VHH": "B4 VHH with L53I"}, "B8": {"name": "long-acting Trop2 antibody conjugated drug HuNb1-Alb Nb1-MMAE (bispecific antibody)", "chain": "EVQLLESGGGLVQPGGSLRLSCAASGFTFSRACMGWFRQASGKGLEGVAQVYTGGGSTSYADSVKGRFTISQDNAKNTLYLQMNSLKPEDTAVYYCAVGQPYGACYYSDLAPADFSYWGQGTLVTVSSGGGGSGGGGSGGGGSGGGGSEVQLQESGGGLVEPGGSLRLSCVASGFTFQHYAMSWVRQAPGKGLEWVSSISLVGGGTSYADSVKGRFTMSRDNAKNTLYLQLNSLKSEDTAMYYCVRGWHPDVPRPLGQGTLVTVSSGGC", "modifications": "vc-PAB-MMAE (Monomethylauristatin E) coupled to the free cysteine (C) at the C-terminus", "notes": "also called HuNb1-Alb Nb1-GGC conjugated with vc-PAB-MMAE"}, "B9": {"name": "HuNb1-Alb Nb1-MMAE: long-acting Trop2 antibody conjugated drug: HuNb1-Alb Nb1-GGC coupled with vc-PAB-MMAE (Monomethylauristatin E) (conjugate)", "chain": "B8 chain"}}, "key": {"Trop2 [1]": {"biological_target": "T1, Trop2 (UniProt P09758 27-323, limits assumed)", "T1 construct": "whole, on cells; also called TACSTD2; Trop2 on A431 cells", "T1 sequence (looked up)": "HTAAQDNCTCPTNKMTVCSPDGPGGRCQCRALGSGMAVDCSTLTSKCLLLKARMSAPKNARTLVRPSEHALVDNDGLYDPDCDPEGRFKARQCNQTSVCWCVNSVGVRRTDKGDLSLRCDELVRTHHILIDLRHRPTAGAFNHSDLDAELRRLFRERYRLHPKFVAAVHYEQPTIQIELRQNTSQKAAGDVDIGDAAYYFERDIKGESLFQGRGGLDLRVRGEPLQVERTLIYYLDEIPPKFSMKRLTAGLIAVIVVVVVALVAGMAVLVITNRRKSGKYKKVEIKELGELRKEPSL", "assay": "flow cytometry on A431 cells, APC anti-HA detection"}, "Trop2 [2]": {"biological_target": "T1, Trop2", "assay": "flow cytometry on BxPC3 cells, APC anti-HA detection"}, "serum albumin": {"biological_target": "serum albumin (UniProt P02768)", "sequence (P02768 25-609 limits assumed)": "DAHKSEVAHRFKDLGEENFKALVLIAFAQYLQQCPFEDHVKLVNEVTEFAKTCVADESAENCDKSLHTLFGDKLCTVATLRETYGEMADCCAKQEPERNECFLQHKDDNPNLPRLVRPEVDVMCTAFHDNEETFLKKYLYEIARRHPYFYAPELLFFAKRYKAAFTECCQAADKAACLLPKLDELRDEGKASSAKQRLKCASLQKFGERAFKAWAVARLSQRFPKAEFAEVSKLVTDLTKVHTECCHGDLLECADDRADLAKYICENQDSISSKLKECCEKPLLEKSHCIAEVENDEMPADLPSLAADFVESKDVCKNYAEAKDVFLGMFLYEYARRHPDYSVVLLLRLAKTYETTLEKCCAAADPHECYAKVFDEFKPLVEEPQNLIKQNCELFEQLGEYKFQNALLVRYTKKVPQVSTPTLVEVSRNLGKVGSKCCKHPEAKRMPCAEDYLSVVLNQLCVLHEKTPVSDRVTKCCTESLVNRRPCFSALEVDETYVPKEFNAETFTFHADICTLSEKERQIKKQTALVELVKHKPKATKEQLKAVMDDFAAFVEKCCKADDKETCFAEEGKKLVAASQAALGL", "assay": "relative binding activity against HuNb3-11; method not described"}, "Trop2 [3]": {"biological_target": "T1, Trop2", "assay": "flow cytometry on A431 and BxPC3 cells, human albumin added during incubation, goat anti-VHH and Alexa Fluor488 donkey anti-goat detection"}, "BxPC3 cells [4]": {"tested_on": "BxPC3 cells", "assay": "Binding activity of long-acting Trop2 antibody conjugated drug to BxPC3 cells by flow cytometry", "procedure": "(§1) Flow cytometry was used to detect the binding activity of these candidate single domain antibodies to Trop2 high expression cell line A431. After the cultured A431 cells were digested with trypsin and neutralized in complete medium, the cells were washed once with PBS, collected and counted, and the cells were added to a 96-well V-bottom plate, 2E5 cells/well. Diluted candidate single domain antibodies and control antibodies BMK1, BMK2 and BMK3 (control antibody sequences are all referred to patent CN111518212B, where BMK1 sequence is the amino acid sequence as set forth in SEQ ID NO: 78, BMK2 sequence is the amino acid sequence as set forth in SEQ ID NO: 65, and BMK3 sequence is the amino acid sequence as set forth in SEQ ID NO: 68) were added to the plate respectively and incubated at 4°C for 40min. After centrifugation, cells were washed with PBS twice, and APC anti-HA antibody was added to incubate at 4°C for 40min. […] APC signal of each sample was detected by flow cytometry.\n(§2) The long-acting Trop2 antibody conjugated drug HuNb1-Alb Nb1-MMAE was incubated with A431 and BxPC3 cells, and the binding activity of the antibody conjugated drug to the cells was detected by flow cytometry. […] After centrifugation, the cells were washed and the supernatant was removed, and the cells were resuspended in PBS and then the Alexa Fluor488 signal of each sample was detected by flow cytometry."}, "BxPC3 cells [5]": {"tested_on": "BxPC3 cells", "assay": "Cell killing activity on BxPC3 cells by Cell Counting Kit-8 (CCK8)", "assay_type": "cell-based", "conditions": "pre-incubated with human serum albumin, 96 hours culture, CCK8 OD450 (FIG.8)", "procedure": "(§3) The long-acting Trop2 single domain antibody conjugated drug HuNb1-Alb […]-MMAE was gradiently diluted in cell medium and incubated with human serum albumin for 20 minutes, then co-incubated with A431 cells and BxPC3 cells, respectively. Cell Counting Kit-8 was added after 96 hours of culture at 37°C in 5% CO2 incubator, and the cells were incubated in the incubator for 2.5 hours. After reading the data (OD450) in the microplate reader, IC50 was calculated."}, "A431 cells [6]": {"tested_on": "A431 cells", "assay": "Cell killing activity on A431 cells by Cell Counting Kit-8 (CCK8)", "assay_type": "cell-based", "conditions": "pre-incubated with human serum albumin, 96 hours culture, CCK8 OD450 (FIG.7)", "procedure": "as §3"}, "A431 cells [7]": {"tested_on": "A431 cells", "assay": "Binding activity of long-acting Trop2 antibody conjugated drug to A431 cells by flow cytometry", "procedure": "as §1, §2"}, "[8]": {"tested_on": "BxPC3 pancreatic cancer cells", "assay": "Anti-tumor activity in BxPC3 tumor-bearing mice", "assay_type": "in vivo", "conditions": "NCG mice", "procedure": "NCG mice were inoculated with BxPC3 pancreatic cancer cells for tumorigenesis. When the tumors grew to about 80mm^3, they were divided into groups, with 6 mice in each group. Three dose groups were set up to be intraperitoneally injected with HuNb1-Alb Nb1-MMAE at 0.2mg/kg, 1mg/kg and 5mg/kg, three times a week, respectively. The negative control group was intraperitoneally injected with PBS. The positive control group was intraperitoneally injected with 150mg/kg Gemcitabine, three times a week."}}, "note": "Residue numbers refer to the chain shown, from its start.", "data": [{"molecule": "B1", "values": [{"measurement": "binding result", "setting": "Trop2 [1]", "value": "binds"}]}, {"molecule": "B2", "values": [{"measurement": "binding result", "setting": "Trop2 [1]", "value": "binds"}]}, {"molecule": "B3", "values": [{"measurement": "binding result", "setting": "Trop2 [2]", "value": "binds"}]}, {"molecule": "B4", "values": [{"measurement": "Relative binding activity EC50", "setting": "serum albumin", "value": 92, "unit": "%"}]}, {"molecule": "B5", "values": [{"measurement": "Relative binding activity EC50", "setting": "serum albumin", "value": 71, "unit": "%"}]}, {"molecule": "B6", "values": [{"measurement": "Relative binding activity EC50", "setting": "serum albumin", "value": 95, "unit": "%"}]}, {"molecule": "B7", "values": [{"measurement": "Relative binding activity EC50", "setting": "serum albumin", "value": 80, "unit": "%"}]}, {"molecule": "B8", "values": [{"measurement": "binding result", "setting": "Trop2 [3]", "value": "binds"}]}, {"molecule": "B9", "values": [{"measurement": "binding activity to BxPC3 cells", "setting": "BxPC3 cells [4]; flow cytometry, Alexa Fluor488 signal (FIG.6)", "value": "good binding activity"}, {"measurement": "effect of the presence of HSA protein on binding to BxPC3 cells", "setting": "BxPC3 cells [4]; human blood albumin added during incubation (FIG.6)", "value": "not affected by the presence of HSA protein"}, {"measurement": "killing effect on BxPC3 cells", "setting": "BxPC3 cells [5]", "value": "significant killing effect"}, {"measurement": "killing effect on A431 cells", "setting": "A431 cells [6]", "value": "significant killing effect"}, {"measurement": "binding activity to A431 cells", "setting": "A431 cells [7]; flow cytometry, Alexa Fluor488 signal (FIG.5)", "value": "good binding activity"}, {"measurement": "effect of the presence of HSA protein on binding to A431 cells", "setting": "A431 cells [7]; human blood albumin added during incubation (FIG.5)", "value": "not affected by the presence of HSA protein"}, {"measurement": "tumor of high-dose group", "setting": "[8]; high-dose group (5mg/kg intraperitoneal, three times a week), after treatment for 20 days", "value": "completely fades"}, {"measurement": "treatment effect compared with Gemcitabine", "setting": "[8]; high-dose group versus 150mg/kg Gemcitabine intraperitoneal, three times a week", "value": "significantly better than the treatment effect of Gemcitabine"}, {"measurement": "BXPC3 tumor killing activity", "setting": "[8]; intraperitoneal 0.2mg/kg, 1mg/kg and 5mg/kg, three times a week (FIG.9)", "value": "significant BXPC3 tumor killing activity"}]}]}
